From the nanobody polyreactivity screen of Harvey et al. (2022)

Assay: yeast display, Sf9 membrane polyspecificity reagent, FACS + sequencing; frameworks hold sequencing errors
Outline: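 Galactose-induced (36–48 hours) yeast carrying a synthetic nanobody display library were exposed to 10% biotinylated, detergent-solubilized Sf9 membrane reagent at 4 °C for 1 hour. FACS followed streptavidin microbead enrichment, using low and high (top ~1%) gates for expression (anti-HA) and reagent binding (streptavidin). Colony PCR, MiSeq 2 × 250 sequencing and CDR-length filtering followed. Labels for polyreactivity reflect the gate of origin.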

Sequence | polyreactivity (PSR sort gate)
QVQLVESGGGLVQAGGSLRLSCAASGSIFFVNAMAWYRQAPGKERESVAGITGGGSTYYADSVKGRFTISRDNAKNTVYLQMNSLKPEDTAVYYCNKKAYRKTGMDYWGQGTQVTVSS | low polyreactivity
QVQLVESGGGLVQAGGSLRLSCAASGRIFWVYAMGWYRQAPGKERELVAAISLSGGRTYYADSVKGRFTISRDNAKNTVYLEMNSLKPEDTAVYYCNAVYPKRGGGRIVDYWGQGTQVTVSS | high polyreactivity
QVQLVESGGGLVQAGGSLRLSCAASGLTFSDYAMGWYRQAPGKEREFVAALTRNGGSTRYADSVKGRFTISRDNAKNTVYLQMNSLKPEDTAVYYCNADGWGDRFWSNFRFDYWGQGTQVTVSS | low polyreactivity
QVQLVESGGGLVQAGGSLRLSCAASGRTLGRYAMGWYRQAPGKERELVAAINVGGGTTHYADSVKGRFTISRDNAKNTVYLQMNSLKPEDTAVYYCAASYRDGHIRHDYWGQGTQVTVSS | low polyreactivity
QVQLVESGGGLVQAGGSLRLSCAASGRTFAFYAMGWYRQAPGKERELVASISSSGDRTYYADSVKGRFTISRVNAKNTVYLQMNSLKPEDTAVYYCAARWRYTYYYWGQGTQVTVSS | high polyreactivity
QVQLVESGGGLVQAGGSLRLSCAATGRIFAYNTMGWYRQAPGKERELVAVITSGGSTNYADSVKGRFTISRDNAKNTVYLQMNSLNPEDTAVYYCAKRPYGRSGGSRYDYWGQGTQVTVSS | high polyreactivity
QVQLVESGGGLVQAGGSLRLSCAASGSIFNLYAMGWYRQAPGKERELVAAINWSGGSTYYADSVKGRFTISRDNAKNTVYLQMNSLKPEDTAVYYCAADAYSTYYGYEGDYWGQGTQVTVSS | low polyreactivity
QVQLVESGGGLVQAGGSLRLSCAASGSIFVRNVMGWYRQAPGKERELVAAISGSGGSTYYADSVKGRFTISRDNAKNTVYLQMNSLKPEDTAVYYCAAPRNLYGVYSYYYWGQGTQVTVSS | high polyreactivity
QVQIVESGGGLVQAGGSLRVSCAASGSIFKIYAMGWYRQAPGKERELVASITGSGGSTYYADSVKGRFTISRDNAKNTVYLQMNSLKPEDTAVYYCAAAVLGSSTSEVDPDRPEYYYWGHGTQVTVSS | low polyreactivity
QVQLVESGGGLVHAGGSLRLSCAASGSIFAANAMGWYRQAPGKERELVAAISSSGDITYYADSVKGRFTISRDNAKNSVFLQMNSLKPEDTAVYYCAARRYPYHEDNYWGQGTQVTVSS | high polyreactivity
QVQLVESGGGLVQAGGSLRLSCAASGFTFVRNTMGWYRQPPGKETELVAAINRSGGNTYYADSVKGRFTISRDNAKNTVYLQMNCLKPEDTAVYYCAADGFGRRDYYYWGQGTQVTVSS | high polyreactivity
QVQLVESGAGLVQAAGRLRLSCAASGNTFKVNVMGWYRPAPGKERQLVASITINDRSTYYADSVKGRFTISRDNAKNTVYLQMNSLKREDTEVYYCGGDLADFYPRFNYWGQGTQVSVSS | low polyreactivity
QVQLVESGGGLVQAGGSLRLSCAASGLTFYTYAMGWYRQAPGKERELVAAISGGGRTHYADSVKGRFTISRDNAKNTVYLQMNSLKPEDTAVYYCAKDKGFLVRYDDLHDYDYWGQGTQVTVSS | low polyreactivity
QVQLVESGGGLVQAGGSLRLSCAASGFTFGSYAMGWYRQAPGKERELVAVITRSGRTNYADSVKGRFTISRDTAKNTVYLQMNSLKPEDTAVYYCNADDVDDEVSPELTEMDYWGQGTQVTVSS | low polyreactivity
QVQLVESGGGLVQAGGSHRLSCAASGRIFKIYAMGWYRQAPGKERELVAAISRGGRTYYADSVKGRFTISRDNAMYTFYLLLNSLTPEDTAVYYCNLYAPDTYGINGYWGQGTQVSVSS | high polyreactivity
QVQLVESGGGLVQAGGSVRLSCAASGFTFGYYAMGWYRQAPGKERELVASISSVDNTYYADSVKGRFTISRDNAKNTVSFQMNSLKPEDTAVDYCAARYRDYFVRGGYWGQGTQVSVSS | high polyreactivity
QVQLVESGGGLVQAGGSLRLSCAASGSIFVPNAMGWYRQAPGKERELVAAISGIGGSTSYADSVKGRFTISRDNAKNTVYLQMNSLKPEDTAVYYCARADKLHTRGWGRWGSGSYSWGQGTQVTVSS | low polyreactivity
